In patent publication US20030215450A1 (published 2003):

T1: murine RANK-L (murine, UniProt O35235 158-316, limits assumed)
T1 sequence (looked up): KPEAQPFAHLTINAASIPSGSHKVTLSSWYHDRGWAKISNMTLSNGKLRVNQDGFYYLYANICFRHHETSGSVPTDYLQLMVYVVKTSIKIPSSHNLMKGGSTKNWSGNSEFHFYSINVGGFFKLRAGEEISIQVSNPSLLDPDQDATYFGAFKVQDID

T2: soluble human RANKL protein (human, UniProt O14788 140-317, limits assumed, biotinylated with NHS-biotin at a 20:1 molar ratio of NHS-biotin to protein (competition ELISA only))
T2 sequence (looked up): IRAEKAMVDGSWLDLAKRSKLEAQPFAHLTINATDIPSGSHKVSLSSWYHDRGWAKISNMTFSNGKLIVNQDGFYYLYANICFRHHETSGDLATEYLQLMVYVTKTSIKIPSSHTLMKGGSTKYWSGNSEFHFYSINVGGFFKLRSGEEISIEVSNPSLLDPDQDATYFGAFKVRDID


Experiments:
murine RANK-L = molecular target: T1, murine RANK-L; assay: not described
[1] = molecular target: T2, soluble human RANKL protein; assay: cell-based or functional assay
[2] = molecular target: T2, soluble human RANKL protein; assay: competition ELISA: biotinylated shRANKL (0.43 nM) binding to coated RANK-Fc, competitor in solution
Source text: A. A competition ELISA was established using a human RANK-Fc fusion protein coated on plastic and a biotinylated soluble human RANKL protein for detection in solution. The RANK-Fc and RANKL proteins were produced in CHO cells and Pichia pastoris, respectively, and purified to >90% homogeneity. The shRANKL (soluble, human RANKL) protein was biotinylated at a 20:1 molar ratio of NHS-biotin to protein (Pierce, Rockford, Ill.) according to the manufacturer's specifications. 96-well ELISA plates were coated overnight at 4° C. with 50 ng/well […] RANK-Fc in pH 9.6 carbonate-bicarbonate buffer. Plates were washed in pH 7.4 Tris-Saline buffer containing 0.1% Tween 20 and blocked for 2 h at RT in 1% BSA/PBS. Competitor proteins (RANK-Fc; death receptor 5 (DR5)-Fc; OPG-Fc; RANKL mAb 2A4) were diluted in 0.01% Tween 20/PBS and added to wells prior to the addition of biotinylated shRANKL (0.43 nM) and the combined samples were incubated for 2 hrs at room temperature. The amount of biotinylated shRANKL bound to coated RANK-Fc (±competitor) was measured using alkaline phosphatase conjugated streptavidin. The substrate for signal detection was 105 PNPP (Pierce Inc., Rockford, Ill.) and absorbance measured at 405 nm using a Spectra Max 340 plate reader.

[3] = molecular target: T2, soluble human RANKL protein; assay: not described with the number; paragraph 33 defines high affinity as determined by optical biosensor analysis

Binder | binding result (murine RANK-L) | IC50, formation of multinuclear cells, human monocyte osteoclastogenesis with 50 ng/ml human soluble RANKL plus M-CSF [1] [µg/mL] | IC50 [2] [nM] | Kd [3] [nM]
mouse monoclonal antibody 2A4 (antibody, mouse IgG2a, V domains shown, the latter are followed; also called mAb 2A4; 2A4 Mab) VH: EVQLVESGGDLVKPGGSLKLSCAASGFTFSRYGMSWVRQTPDKRLEWVATISSGGSYIYYPDSVKGRFTISRDNAKNTLYLQMSSLKSEDTAMYYCARLDGYNYRWYFDVWGTGTTVTVSS VL: DIVMTQSHKFMSTSVGDRVSITCKASQDVSTAVAWYQQKPGQSPKLLIYSASYRYTGVPDRFTGSGSGTDFTFTISSVQAEDLAVYYCQQHYSSPRTFGGGTNLEIK | no binding | ~4 | ~2 | ~0.1
human RANK-Fc fusion protein (Fc fusion, UniProt Q9Y6Q6 30-212, looked up, Produced in CHO cells; not shown: Fc part) IAPPCTSEKHYEHLGRCCNKCEPGKYMSSKCTTTSDSVCLPCGPDEYLDSWNEEDKCLLHKVCDTGKALVAVVAGNSTTPRRCACTAGYHWSQDCECCRRNTECAPGLGAQHPLQLNKDTVCKPCLAGYFSDAFSSTDKCRPWTNCTFLGKRVEHHGTEKSDAVCSSSLPARKPPNEPHVYLP | – | ~0.5 | ~6 | –
OPG-Fc (Fc fusion, UniProt O00300 22-194, looked up, Construct not described; also called osteoprotegerin-Fc; not shown: Fc part; not described) ETFPPKYLHYDEETSHQLLCDKCPPGTYLKQHCTAKWKTVCAPCPDHYYTDSWHTSDECLYCSPVCKELQYVKQECNRTHNRVCECKEGRYLEIEFCLKHRSCPPGFGVVQAGTPERNTVCKRCPDGFFSNETSSKAPCRKHTNCSVFGLLLTQKGNATHDNICSGNSESTQK | – | – | ~0.5 | –
